Data set [1] addresses T1, NasLPLDH (Nocardia asteroides, UniProt U5EKS1).
T1 construct: gene NCAST_32_01610; pET28a, codon-optimized synthetic gene, E. coli BL21(DE3)
T1 sequence (U5EKS1 1-404): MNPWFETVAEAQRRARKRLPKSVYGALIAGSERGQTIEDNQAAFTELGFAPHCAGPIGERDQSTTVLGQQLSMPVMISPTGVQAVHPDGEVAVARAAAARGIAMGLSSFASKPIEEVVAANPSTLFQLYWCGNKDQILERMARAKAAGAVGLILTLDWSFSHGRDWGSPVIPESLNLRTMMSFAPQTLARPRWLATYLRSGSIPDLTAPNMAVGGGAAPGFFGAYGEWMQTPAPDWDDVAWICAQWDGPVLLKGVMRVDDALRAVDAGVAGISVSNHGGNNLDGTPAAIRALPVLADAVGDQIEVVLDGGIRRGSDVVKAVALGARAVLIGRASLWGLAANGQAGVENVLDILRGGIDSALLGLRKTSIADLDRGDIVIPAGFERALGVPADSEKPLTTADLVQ
In words: substrate specificity, dehydrogenation by recombinant enzyme. In kind it is cell-based. To be noted: recombinant E. coli BL21(DE3); FMN-dependent.

Data set [2] has as its target T2, CduCPR (Candida dubliniensis, UniProt B9WJQ5).
T2 construct: gene CPR-C2; pACYCDuet-1, co-expressed with EsGDH in E. coli BL21(DE3) cells
T2 sequence (B9WJQ5 1-309): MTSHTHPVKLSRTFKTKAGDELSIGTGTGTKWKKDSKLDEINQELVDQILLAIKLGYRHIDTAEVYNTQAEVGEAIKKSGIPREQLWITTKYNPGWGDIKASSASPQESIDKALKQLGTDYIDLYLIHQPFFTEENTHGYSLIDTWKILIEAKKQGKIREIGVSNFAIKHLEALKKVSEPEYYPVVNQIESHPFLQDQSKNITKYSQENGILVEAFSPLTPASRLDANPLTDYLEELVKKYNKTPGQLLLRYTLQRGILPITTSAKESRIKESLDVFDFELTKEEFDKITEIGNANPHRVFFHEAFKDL
Kind of data set: whole-cell reduction to D-pantolactone. The data set is classed as cell-based. To be noted: E. coli cells co-expressing EsGDH.

The subject of data set [3] is T3, ZpaCPR.
T3 construct: gene CPR; pET28a, codon-optimized synthetic gene, E. coli BL21(DE3), Ni-NTA purified
Kind of data set: NADPH oxidation, absorbance […] nm, Michaelis-Menten fit. The data set is classed as biochemical, Zygosaccharomyces parabailii. Conditions: 0.15 mM NADPH, 200 mM PBS pH 5.5, 45 °C.

Substrate in data set [4]: CC1(C)COC(=O)[C@H]1O
In words: purified protein. The data set is classed as biochemical, Amycolatopsis methanolica. Conditions: 0.15 mM FMN, 200 mM PBS pH 8.0, 30 °C.

We go through three molecules from paper PMC10384591, “Multi-Enzymatic Cascade for Efficient Deracemization of DL-Pantolactone into D-Pantolactone” (Molecules, 2023).

Turning to `CC1(C)COC(=O)[C@H]1O` [L-pantolactone], the “substrate specificity, dehydrogenation by recombinant enzyme” value in data set [1] is “all five LPLDHs showed the capacity to catalyze the dehydrogenation of L-pantolactone but not D-pantolactone”.
As to `CC1(C)COC(=O)C1=O` [ketopantolactone], the “whole-cell reduction to D-pantolactone” value in data set [2] is given as “used to catalyze the reduction of ketopantolactone, affording the single D-enantiomer”. Further, in data set [3], the Michaelis-Menten constant (Km) amounted to 3.65 ± 0.58 mM.

B1: AmeLPLDH (Amycolatopsis methanolica 239) (protein)
chain: MSNGWFETVAEAQRRARKRLPKSVYGALVAGSERGITVDDNIAAFAELGFAPHVAGLSDKRELGTTVMGQPISLPVVISPTGVQAVHPDGEVAVARAAAARGTAMGLSSFASKSIEEVAAANPQTFFQMYWVGSRDVLVQRMERARAAGAVGLIMTLDWSFSTGRDWGSPVIPEKLDLKAMARFAPEGITRPKWLWDFAKTRKLPDLTTPNLTPPGGTAPTFFGAYGEWMQTPLPTWEDVAWLREQWGGPFMLKGVMRVDDAKRAVDAGVTAISVSNHGGNNLDGTPAPIRALPAIADAVGGDVEVLLDGGIRRGSDVVKAIALGAKAVLIGRAYLWGLAANGQAGVENVLDILRGGIDSAVLGLGKTSIHELTRDDVVIPPGFERALGVPKS
notes: pET28a, codon-optimized synthetic gene, E. coli BL21(DE3), Ni-NTA purified, Brij 35 solubilised
With B1, in data set [4], the Michaelis-Menten constant (Km) was determined as 0.57 ± 0.04 mM, the maximal velocity (Vmax) came to 52.5 µmol/min/mg, the catalytic constant (kcat) stood at 36.41 ± 0.29 s⁻¹ and the kcat/Km was determined as 63850 ± 510 M⁻¹ s⁻¹.

For orientation: Km means the concentration of substrate that gives half-maximal velocity. For orientation: Vmax means the rate approached at saturating substrate. The kcat is the number of substrate molecules converted per active site and unit of time at saturation. By kcat/Km is commonly meant the second-order rate constant that governs catalysis at low substrate concentration.
